The values below come from patent US20250019457A1 (IBIO, published 2025).

Changes are numbered by the printed parent chain. Where two headings read alike, the source gives them in different places.

Assay [1] has as its target T1, human TROP2 (purified recombinant antigen, Acro Biosystems Cat #TR2-H5223) (human, UniProt P09758 27-274).
T1 construct: Bought recombinant protein; also called huTROP2
T1 sequence: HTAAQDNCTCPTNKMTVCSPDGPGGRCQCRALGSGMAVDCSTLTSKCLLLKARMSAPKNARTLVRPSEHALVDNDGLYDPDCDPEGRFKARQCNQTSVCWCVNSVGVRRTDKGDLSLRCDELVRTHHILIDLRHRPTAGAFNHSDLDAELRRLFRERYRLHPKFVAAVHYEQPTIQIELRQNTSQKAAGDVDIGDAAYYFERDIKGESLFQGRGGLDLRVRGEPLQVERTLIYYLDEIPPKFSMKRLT
The assay is described as follows: SPR, Carterra LSA; antibody captured on anti-human IgG, antigen injected; 1:1 fit.

The target in assay [2] is T2, mouse TROP2 (purified recombinant antigen, Acro Biosystems Cat #TR2-M52H6) (mouse, UniProt Q8BGV3 25-270).
T2 construct: Bought recombinant protein; also called msTROP2
T2 sequence: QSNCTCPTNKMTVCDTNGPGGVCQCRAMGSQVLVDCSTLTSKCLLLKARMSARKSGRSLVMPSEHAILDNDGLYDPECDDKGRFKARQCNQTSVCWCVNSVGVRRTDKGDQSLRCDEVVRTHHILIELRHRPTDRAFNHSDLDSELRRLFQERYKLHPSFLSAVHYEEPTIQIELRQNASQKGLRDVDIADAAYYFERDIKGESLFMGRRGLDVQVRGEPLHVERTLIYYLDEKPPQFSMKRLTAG
The assay is described as above.

In assay [3] the target is T1, human TROP2 (purified recombinant …). Described as above. The source holds these as a separate data set.
In assay [4] the target is T3, cynomolgus/rhesus TROP2 (purified recombinant antigen, Acro Biosystems Cat #TR2-R52H3) (cynomolgus/rhesus, UniProt P09758 27-274 (human entry)).
T3 construct: Bought recombinant protein; also called cyTROP2; cyno/rhesus TROP2
T3 chain: T1 sequence with M36V, S67N, I204V
Described as above.

The target in assay [5] is T4, human EpCAM (purified recombinant antigen, Acro Biosystems Cat #EPM-H5223) (human, UniProt P16422 24-265).
T4 construct: Bought recombinant protein
T4 sequence: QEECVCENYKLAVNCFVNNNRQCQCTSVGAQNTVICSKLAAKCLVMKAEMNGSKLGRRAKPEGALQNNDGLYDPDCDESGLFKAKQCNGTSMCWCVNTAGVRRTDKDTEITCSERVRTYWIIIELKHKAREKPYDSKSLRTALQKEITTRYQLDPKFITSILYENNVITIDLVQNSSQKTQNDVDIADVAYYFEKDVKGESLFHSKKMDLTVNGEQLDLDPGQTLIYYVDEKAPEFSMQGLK
The assay is described as follows: SPR, Carterra LSA; antibody captured on anti-human IgG, antigen injected.

In assay [6] the target is T2, mouse TROP2 (purified recombinant …). The assay is described as follows: SPR, Carterra LSA; ratio of KD values, reference huTROP2.
Assay [7] concerns the target T1, human TROP2 (purified recombinant …). The assay is described as follows: MSD assay: biotinylated TROP2 on streptavidin plate, antibody titrated, anti-human SULFO-TAG detection.
Assay [8] concerns the target T5, human Trop2 on cells (FaDu cells, endogenous; ExpiCHO cells overexpressing human Trop2) (human, UniProt P09758 27-323).
T5 construct: Cell-surface form
T5 sequence: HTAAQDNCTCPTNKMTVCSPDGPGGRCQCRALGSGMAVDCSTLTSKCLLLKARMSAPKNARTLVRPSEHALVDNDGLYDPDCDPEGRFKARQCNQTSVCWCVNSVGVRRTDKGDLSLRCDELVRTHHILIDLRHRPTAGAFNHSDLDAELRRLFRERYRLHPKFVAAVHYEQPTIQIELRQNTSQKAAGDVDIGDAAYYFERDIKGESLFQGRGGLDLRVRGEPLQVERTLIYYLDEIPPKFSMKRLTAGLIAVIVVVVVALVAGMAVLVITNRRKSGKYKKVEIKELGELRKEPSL
The assay is described as follows: flow cytometry on FaDu cells (endogenous human Trop2); average of n=1-3 experiments.

The target of assay [9] is T1, human TROP2 (purified recombinant …). The assay is described as follows: SPR (Carterra LSA), antibody captured through human Fc, huTROP2 as analyte; KD plotted for each VH/VL combination.
Assay [10] deals with T5, human Trop2 on cells (FaDu cells, …). The assay is described as follows: flow cytometry on ExpiCHO cells overexpressing human Trop2, percent of cells bound.

B1: SD-685208 (antibody, V domains shown)
VH: AVTLDESGGGLQTPGGALSLVCKASGFDFIDYDMFWVRQAPGKGLEWVGVINRSGSYTNYAPAVKGRATISRDNGQSTMRLQLNNLRAEDTGTYYCARGACTHCWDADSAGYIDAWGHGTEVIVSS
VL: ALALTQPSSVSANPGETVKITCSGSSGSYGWFQQKSPGSAPVTVIYWNDKRPSDIPSRFSGSTSGSTGTLTITGVQADDEAVYFCGNADSSGTFGAGTTLTVL
notes: Chicken/human chimera
Regarding B1, the Kd in assay [1] turned out to be 3.81 nM; in [2] it was 11.4 nM; in [3], 3.81 nM; in [4], 6.08 nM. For the same molecule, the koff in assay [1] was determined as 0.000898 s⁻¹. Besides, the kon in assay [1] turned out to be 235000 M⁻¹ s⁻¹. In assay [5], the binding result is recorded as “no binding (tested: 1 µM top concentration)”. Further, the “Fold difference in affinity (huTROP2:msTROP2)” value (shortened to “Fold difference in affinity”) in assay [6] came to 3 fold. The “EC50 (read off the curve)” value in [7] was roughly 0.08 nM. For the same molecule, the EC50 in [8] was determined as 0.513 nM.

B2: 589-VH_5 + 589-VL_1 (antibody, V domains shown)
VH: B1 VH with A17G
VL: SYELTQPPSVSVSPGQTASITCSGSSGSYGWYQQKPGQSPVLVIYSSDKRPSGIPERFSGSNSGNTATLTISGTQAMDEADYYCGGYDGSTDVGIFGGGTKLTVL
notes: parental VH with humanized VL
Take B2: in assay [9], the binding result is on record as “binds”.

B3: 589-VH_5 + 589-VL_2 (antibody, V domains shown)
VH: B1 VH with A17G
VL: B2 VL with Y2L, Y32H, L42T, N62S, N65S
notes: parental VH with humanized VL
With B3, in assay [9], the binding result is “binds”.

B4: 589-VH_2 + 589-VL_1 (antibody, V domains shown)
VH: QVQLLESGGGLVKPGGSLRLSCAASGFDFIDYDMFWIRQAPGKGLEWVGVINRSGSYTNYAPAVKGRATISRDNAKNSMYLQMNSLRAEDTAVYYCARGACTHCWDADSAGYIDAWGQGTLVTVSS
VL: B2 VL
For B4, the binding result in assay [9] is on record as “binds”.

B5: 589-VH_2 + 589-VL_4 (antibody, V domains shown)
VH: B4 VH
VL: ALALTQPSSVSANPGGTVKITCSGSSGSYGWHQQKSPGSAPVTVIYSSDKRPSDIPSRFSGALSGSTATLTITGVRAEDEAVYYCGGYDGSTDVGIFGAGTTLTVL
As to B5, the binding result in assay [9] is reported as “binds”.

B6: 589-VH_3 + 589-VL_1 (antibody, V domains shown)
VH: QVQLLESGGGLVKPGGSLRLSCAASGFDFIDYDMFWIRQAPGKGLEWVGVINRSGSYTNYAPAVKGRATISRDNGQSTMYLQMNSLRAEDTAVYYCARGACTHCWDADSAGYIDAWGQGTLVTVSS
VL: B2 VL
For the molecule B6, the binding result in assay [9] is “binds”.

B7: 589-VH_1 + 589-VL_4 (antibody, V domains shown)
VH: B4 VH with D28T, I30S, G49S, A68F, M79L
VL: B5 VL
Consider B7, for which, in assay [9], the binding result is given as “binds”.

B8: 589-VH_3 + 589-VL_2 (antibody, V domains shown)
VH: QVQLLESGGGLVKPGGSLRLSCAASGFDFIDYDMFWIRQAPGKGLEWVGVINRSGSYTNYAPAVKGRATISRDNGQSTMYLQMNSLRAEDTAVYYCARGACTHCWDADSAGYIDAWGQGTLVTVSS
VL: B2 VL with Y2L, Y32H, L42T, N62S, N65S
For the molecule B8, in assay [9], the binding result is given as “binds”.

B9: 589-VH_1 + 589-VL_2 (antibody, V domains shown)
VH: B4 VH with D28T, I30S, G49S, A68F, M79L
VL: B2 VL with Y2L, Y32H, L42T, N62S, N65S
Turning to B9, in [9], the binding result is “binds”.

B10: 589-VH_1 + 589-VL_1 (antibody, V domains shown)
VH: B4 VH with D28T, I30S, G49S, A68F, M79L
VL: B2 VL
Take B10: the binding result in assay [9] is on record as “binds”.

B11: 589-VH_3 + 589-VL_4 (antibody, V domains shown)
VH: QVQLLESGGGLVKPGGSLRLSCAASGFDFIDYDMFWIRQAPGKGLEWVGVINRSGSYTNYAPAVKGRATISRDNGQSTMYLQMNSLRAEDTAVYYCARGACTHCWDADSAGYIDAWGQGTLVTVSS
VL: B5 VL
Regarding B11, the binding result in assay [9] is reported as “binds”.

B12: 589-VH_2 + 589-VL_2 (antibody, V domains shown)
VH: B4 VH
VL: B2 VL with Y2L, Y32H, L42T, N62S, N65S
notes: also called SD-861408
Regarding B12, the binding result in assay [9] is “binds”.

B13: SD-394517 (antibody, V domains shown)
VH: AVTLDESGGGLQTPGGALSLVCKGSGFTFSSYAMGWVRQAPGKGLEYVAAISSGSSTGYGAAVKGRATISRDTGQSTVRLQLNNLRAEDTATYYCAKSGYGGSASYVSDIDAWGHGTEVIVSS
VL: ALALTQPSSVSANPGETVEITCSGGGDYYGTYYYGWYQQKAPGSAPVTVIYDNTKRPSNIPSRFSGSTSGSTNTLTITGVQADDEAVYYCGSYDSSAGIFGAGTTLTVL
notes: Chicken/human chimera
For the molecule B13, the Kd amounted to 0.76 nM in [1], 1.18 nM in assay [2], 0.76 nM in assay [3] and 0.92 nM in assay [4]. In [1], the koff amounted to 0.000303 s⁻¹. In addition, the kon in [1] came out at 396000 M⁻¹ s⁻¹. For the same molecule, the binding result in assay [5] is listed as “no binding (tested: 1 µM top concentration)”. Moreover, in [6], the “Fold difference in affinity” value stood at 1.5 fold. The molecule further had an EC50 in [8] of 2.04 nM.

B14: SD-457798 (antibody, V domains shown)
VH: B13 VH with R71K
VL: ALALTQPSSVSANPGETVEITCSGGGDYYGTYYYGWYQQKAPGSAPVTVIYDNTKRPSNIPSRFSGSTSGSTNTLTITGVQADDEAIYFCGSYKSNTFGAGTTLTVL
notes: Chicken/human chimera
Take B14: the Kd in assay [1] was 0.64 nM; in assay [2], 0.34 nM; in assay [3], 0.64 nM; in assay [4], 0.96 nM. The koff in [1] worked out at 0.000259 s⁻¹. The association rate constant (kon) in assay [1] is 403000 M⁻¹ s⁻¹. For the same molecule, the binding result in assay [5] is “no binding (tested: 1 µM top concentration)”. In assay [6], the “Fold difference in affinity” value was found to be 0.5 fold. In assay [8], this molecule registered an EC50 of 1.06 nM.

B15: RS7 (antibody, V domains shown)
VH: QVQLQQSGSELKKPGASVKVSCKASGYTFTNYGMNWVKQAPGQGLKWMGWINTYTGEPTYTDDFKGRFAFSLDTSVSTAYLQISSLKADDTAVYFCARGGFGSSYWYFDVWGQGSLVTVSS
VL: DIQLTQSPSSLSASVGDRVSITCKASQDVSIAVAWYQQKPGKAPKLLIYSASYRYTGVPDRFSGSGSGTDFTLTISSLQPEDFAVYYCQQHYITPLTFGAGTKVEIKR
As to B15, the figures for the Kd in assay [1], in [3] and in assay [4] were 1.81 nM, 1.81 nM and 2.05 nM, respectively. The koff in [1] worked out at 0.000201 s⁻¹. Also, the kon in assay [1] amounted to 111000 M⁻¹ s⁻¹. Besides, the figures for the “EC50 (read off the curve)” value in assay [10] and in assay [7] were roughly 0.03 nM and roughly 0.3 nM, respectively. In assay [8], this molecule displayed an EC50 of 2 nM.
